Series [1] addresses GST-MKK7 (unactive/inactive, Upstate) [GST: P08515].
For series [2], the target named is GST (glutathione S-transferase, negative control substrate) [GST: P08515].

B1: HA-JIK (human JNK/SAPK-inhibitory kinase ligated with HA-tag at its N-terminus) (protein)
chain: MRKGVLKDPEIADLFYKDDPEELFIGLHEIGHGSFGAVYFATNAHTSEVVAIKKMSYSGKQTHEKWQDILKEVKFLRQLKHPNTIEYKGCYLKEHTAWLVMEYCLGSASDLLEVHKKPLQEVEIAAITHGALHGLAYLHSHALIHRDIKAGNILLTEPGQVKLADFGSASMASPANSFVGTPYWMAPEVILAMDEGQYDGKVDIWSLGITCIELAERKPPLFNMNAMSALYHIAQNDSPTLQSNEWTDSFRRFVDYCLQKIPQERPTSAELLRHDFVRRDRPLRVLIDLIQRTKDAVRELDNLQYRKMKKILFQETRNGPLNESQEDEEDSEHGTSLNREMDSLGSNHSIPSMSVSTGSQSSSVNSMQEVMDESSSELVMMHDDESTINSSSSVVHKKDHVFIRDEAGHGDPRPEPRPTQSVQSQALHYRNRERFATIKSASLVTRQIHEHEQENELREQMSGYKRMRRQHQKQLIALENKLKAEMDEHRLKLQKEVETHANNSSIELEKLAKKQVAIIEKEAKVAAADEKKFQQQILAQQKKDLTTFLESQKKQYKICKEKIKEEMNEDHSTPKKEKQERISKHKENLQHTQAEEEAHLLTQQRLYYDKNCRFFKRKIMIKRHEVEQQNIREELNKKRTQKEMEHAMLIRHDESTRELEYRQLHTLQKLRMDLIRLQHQTELENQLEYNKRRERELHRKHVMELRQQPKNLKAMEMQIKKQFQDTCKVQTKQYKALKNHQLEVTPKNEHKTILKTLKDEQTRKLAILAEQYEQSINEMMASQALRLDEAQEAECQALRLQLQQEMELLNAYQSKIKMQTEAQHERELQKLEQRVSLRRAHLEQKIEEELAALQKERSERIKNLLERQEREIETFDMESLRMGFGNLVTLDFPKEDYR
Consider B1, for which the “in-vitro phosphorylation of the substrate (immune complex phosphorylation method, [γ-32P]ATP, SDS-PAGE, autoradiography)” value is “The phosphorylation of GST-MKK7 by JIK was observed” in series [1] and “The phosphorylation was not observed when GST was used as a substrate for a negative control” in series [2].

B2: FLAG-PAK4 (human p21-activated kinase 4 ligated with FLAG-tag at its N-terminus) (protein)
chain: MFGKRKKRVEISAPSNFEHRVHTGFDQHEQKFTGLPRQWQSLIEESARRPKPLVDPACITSIQPGAPKTIVRGSKGAKDGALTLLLDEFENMSVTRSNSLRRDSPPPPARARQENGMPEEPATTARGGPGKAGSRGRFAGHSEAGGGSGDRRRAGPEKRPKSSREGSGGPQESSRDKRPLSGPDVGTPQPAGLASGAKLAAGRPFNTYPRADTDHPSRGAQGEPHDVAPNGPSAGGLAIPQSSSSSSRPPTRARGAPSPGVLGPHASEPQLAPPACTPAAPAVPGPPGPRSPQREPQRVSHEQFRAALQLVVDPGDPRSYLDNFIKIGEGSTGIVCIATVRSSGKLVAVKKMDLRKQQRRELLFNEVVIMRDYQHENVVEMYNSYLVGDELWVVMEFLEGGALTDIVTHTRMNEEQIAAVCLAVLQALSVLHAQGVIHRDIKSDSILLTHDGRVKLSDFGFCAQVSKEVPRRKSLVGTPYWMAPELISRLPYGPEVDIWSLGIMVIEMVDGEPPYFNEPPLKAMKMIRDNLPPRLKNLHKVSPSLKGFLDRLLVRDPAQRATAAELLKHPFLAKAGPPASIVPLMRQNRTR
For B2, the “in-vitro phosphorylation of the substrate (immune complex phosphorylation method, [γ-32P]ATP, SDS-PAGE, autoradiography)” value is recorded as “The phosphorylation of GST-MKK7 by PAK4 was observed” in series [1] and “The phosphorylation was not observed when GST was used as a substrate for a negative control” in series [2].
